Test results: patent publication US20230322953A1 (HARBOUR BIOMED SHANGHAI, published 2023)
Positions count from the first letter of the chain named.

T1: human BCMA (human, UniProt Q02223 1-184)
T1 construct: whole, on cells; also called hBCMA; TNFRSF17
T1 sequence (looked up): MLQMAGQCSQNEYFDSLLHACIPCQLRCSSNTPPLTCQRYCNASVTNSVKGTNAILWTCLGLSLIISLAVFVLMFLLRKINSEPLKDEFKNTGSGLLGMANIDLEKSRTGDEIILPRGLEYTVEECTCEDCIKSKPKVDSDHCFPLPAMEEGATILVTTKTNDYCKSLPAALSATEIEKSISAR

B1: PR001991 (bispecific antibody, human IgG1, kappa, L234A L235A)
chain 1: EVQLLESGGGLVQPGGSLRLSCAASGFTFNTYAMNWVRQAPGKGLEWVSRIRSKYNNYATYYADSVKDRFTISRDDSKSTLYLQMNSLRAEDTAVYYCVRHGNFGNSYVSWFAYWGQGTLVTVSSRTVAAPSVFIFPPSDEQLKSGTASVVCLLNNFYPREAKVQWKVDNALQSGNSQESVTEQDSKDSTYSLSSTLTLSKADYEKHKVYACEVTHQGLSSPVTKSFNRGEC
chain 2: QAVVTQEPSLTVSPGGTVTLTCRSSTGAVTTSNYANWVQQKPGQAPRGLIGGTNKRAPWTPARFSGSLLGDKAALTLLGAQPEDEAEYFCALWYSNLWVFGGGTKLTVLSSASTKGPSVFPLAPSSKSTSGGTAALGCLVKDYFPEPVTVSWNSGALTSGVHTFPAVLQSSGLYSLSSVVTVPSSSLGTQTYICNVNHKPSNTKVDKKVEPKSCDKTHTCPPCPAPEAAGGPSVFLFPPKPKDTLMISRTPEVTCVVVDVSHEDPEVKFNWYVDGVEVHNAKTKPREEQYNSTYRVVSVLTVLHQDWLNGKEYKCKVSNKALGAPIEKTISKAKGQPREPQVYTLPPCREEMTKNQVSLWCLVKGFYPSDIAVEWESNGQPENNYKTTPPVLDSDGSFFLYSKLTVDKSRWQQGNVFSCSVMHEALHNHYTQKSLSLSPGK
chain 3: EVQLLESGGGLVQPGGSLRLSCAASGFTFSSYAMIWVRQAPGKGLEWVSGISESGGSTYYADSVKGRFTISRDNSKNTLYLQMNSLRAEDTAVYFCVKDLDDILTGYYKDYWGQGTLVTVSSASEPKSSDKTHTCPPCPAPEAAGGPSVFLFPPKPKDTLMISRTPEVTCVVVDVSHEDPEVKFNWYVDGVEVHNAKTKPREEQYNSTYRVVSVLTVLHQDWLNGKEYKCKVSNKALGAPIEKTISKAKGQPREPQVCTLPPSREEMTKNQVSLSCAVKGFYPSDIAVEWESNGQPENNYKTTPPVLDSDGSFFLVSKLTVDKSRWQQGNVFSCSVMHEALHNHYTQKSLSLSPGK
notes: CD3 of PR000511, BCMA VH of PR000940; IgG1 knob/hole, AAG
B2: PR001992 (bispecific antibody, human IgG1, kappa, L234A L235A)
chain 1: B1 chain 1
chain 2: B1 chain 2
chain 3: EVQLVETGGGLIQPGGSLRLSCAASGFPVSSNYMSWVRQAPGKGLEWVSVIFSGGRTYYADSVKGRFTISRDNSKNTLYLQMNSLRAEDTAVYYCARRNWIDGRDAFDIWGQGTMVTVSSASEPKSSDKTHTCPPCPAPEAAGGPSVFLFPPKPKDTLMISRTPEVTCVVVDVSHEDPEVKFNWYVDGVEVHNAKTKPREEQYNSTYRVVSVLTVLHQDWLNGKEYKCKVSNKALGAPIEKTISKAKGQPREPQVCTLPPSREEMTKNQVSLSCAVKGFYPSDIAVEWESNGQPENNYKTTPPVLDSDGSFFLVSKLTVDKSRWQQGNVFSCSVMHEALHNHYTQKSLSLSPGK
notes: BCMAxCD3, Fab(cross VH/VL)-Fc-VH (structure 12); CD3 of PR000511, BCMA VH of PR000943; IgG1 knob/hole, AAG
B3: PR001993 (bispecific antibody, human IgG1, kappa, L234A L235A)
chain 1: B1 chain 1
chain 2: B1 chain 2
chain 3: B2 chain 3 with P28T, S35T, R56S, N99I, W100A, I101V, D102A, R104H, A106V
notes: BCMAxCD3, Fab(cross VH/VL)-Fc-VH (structure 12); CD3 of PR000511, BCMA VH of PR001035; IgG1 knob/hole, AAG
B4: PR003867 (bispecific antibody, human IgG1, lambda, L234A L235A)
light: QAVVTQEPSLTVSPGGTVTLTCRSSTGAVTTSNYANWVQQKPGQAPRGLIGGTNKRAPWTPARFSGSLLGDKAALTLLGAQPEDEAEYFCALWYSNLWVFGGGTKLTVLGQPKAAPSVTLFPPSSEELQANKATLVCLISDFYPGAVTVAWKADSSPVKAGVETTTPSKQSNNKYAASSYLSLTPEQWKSHRSYSCQVTHEGSTVEKTVAPTECS
heavy: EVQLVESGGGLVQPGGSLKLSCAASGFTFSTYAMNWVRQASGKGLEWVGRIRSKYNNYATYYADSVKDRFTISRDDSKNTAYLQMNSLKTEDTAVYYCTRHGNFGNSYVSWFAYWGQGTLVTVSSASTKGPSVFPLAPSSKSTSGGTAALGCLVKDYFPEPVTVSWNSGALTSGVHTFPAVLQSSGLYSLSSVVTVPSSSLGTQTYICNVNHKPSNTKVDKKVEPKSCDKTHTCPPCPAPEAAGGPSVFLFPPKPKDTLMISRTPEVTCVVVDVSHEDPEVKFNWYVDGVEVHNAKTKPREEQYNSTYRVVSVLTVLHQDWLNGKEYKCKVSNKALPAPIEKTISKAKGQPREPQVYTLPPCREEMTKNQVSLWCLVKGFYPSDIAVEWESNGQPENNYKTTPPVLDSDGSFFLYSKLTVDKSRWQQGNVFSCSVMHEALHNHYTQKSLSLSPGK
chain: EVQLVETGGGLIQPGGSLRLSCAASGFTVSDNYMTWVRQAPGKGLEWVSVIFSGGKTYYADSVKGRFTISRDNAKNTLYLQMNSLRAEDTALYYCARRNYDDTRGTDVFDIWGQGTMVTVSSASEPKSSDKTHTCPPCPAPEAAGGPSVFLFPPKPKDTLMISRTPEVTCVVVDVSHEDPEVKFNWYVDGVEVHNAKTKPREEQYNSTYRVVSVLTVLHQDWLNGKEYKCKVSNKALPAPIEKTISKAKGQPREPQVCTLPPSREEMTKNQVSLSCAVKGFYPSDIAVEWESNGQPENNYKTTPPVLDSDGSFFLVSKLTVDKSRWQQGNVFSCSVMHEALHNHYTQKSLSLSPGK
notes: BCMAxCD3, Fab-Fc-VH (structure 11); CD3 Fab of PR003886, BCMA VH of PR004559; IgG1 knob/hole, LALA
B5: PR003868 (bispecific antibody, human IgG1, lambda, L234A L235A)
light: B4 light
heavy: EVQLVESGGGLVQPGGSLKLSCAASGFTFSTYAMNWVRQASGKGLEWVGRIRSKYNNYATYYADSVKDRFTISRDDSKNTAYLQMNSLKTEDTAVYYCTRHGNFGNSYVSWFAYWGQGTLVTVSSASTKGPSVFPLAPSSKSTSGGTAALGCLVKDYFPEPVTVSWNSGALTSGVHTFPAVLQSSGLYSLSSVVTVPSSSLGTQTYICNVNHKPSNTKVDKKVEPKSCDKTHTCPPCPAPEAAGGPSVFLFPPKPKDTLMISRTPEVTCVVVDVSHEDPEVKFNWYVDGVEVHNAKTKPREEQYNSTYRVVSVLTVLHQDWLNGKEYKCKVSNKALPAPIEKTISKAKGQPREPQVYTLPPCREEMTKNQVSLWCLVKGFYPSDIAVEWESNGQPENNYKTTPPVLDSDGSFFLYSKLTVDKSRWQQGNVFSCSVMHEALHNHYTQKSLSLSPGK
chain: B4 chain with S30Y, Y59V, D102Q
notes: BCMAxCD3, Fab-Fc-VH (structure 11); CD3 Fab of PR003886, BCMA VH of PR004563; IgG1 knob/hole, LALA
B6: PR001994 (bispecific antibody, human IgG1, kappa, L234A L235A)
chain 1: B1 chain 1
chain 2: B1 chain 2
chain 3: B4 chain with K56N, P238G
notes: BCMAxCD3, Fab(cross VH/VL)-Fc-VH (structure 12); CD3 of PR000511, BCMA VH of PR001046; IgG1 knob/hole, AAG
B7: PR003877 (bispecific antibody, human IgG1, lambda, L234A L235A)
light: B4 light
heavy: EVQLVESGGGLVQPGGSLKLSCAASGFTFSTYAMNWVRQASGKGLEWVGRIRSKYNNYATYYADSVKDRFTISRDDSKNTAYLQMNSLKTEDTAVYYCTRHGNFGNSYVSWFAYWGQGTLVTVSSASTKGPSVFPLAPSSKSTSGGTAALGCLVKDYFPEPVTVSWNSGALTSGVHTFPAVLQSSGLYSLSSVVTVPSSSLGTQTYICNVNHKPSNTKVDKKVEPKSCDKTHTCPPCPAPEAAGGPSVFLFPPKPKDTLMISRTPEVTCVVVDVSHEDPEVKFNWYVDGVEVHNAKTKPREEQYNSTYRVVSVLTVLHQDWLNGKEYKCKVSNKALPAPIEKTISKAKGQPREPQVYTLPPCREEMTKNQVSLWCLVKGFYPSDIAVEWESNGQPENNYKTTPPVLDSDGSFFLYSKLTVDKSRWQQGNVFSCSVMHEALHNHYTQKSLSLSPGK
chain: B4 chain with N32S, Y59V
notes: BCMAxCD3, Fab-Fc-VH (structure 11); CD3 Fab of PR003886, BCMA VH of PR004572; IgG1 knob/hole, LALA
B8: PR003881 (bispecific antibody, human IgG1, lambda, L234A L235A)
light: B4 light
heavy: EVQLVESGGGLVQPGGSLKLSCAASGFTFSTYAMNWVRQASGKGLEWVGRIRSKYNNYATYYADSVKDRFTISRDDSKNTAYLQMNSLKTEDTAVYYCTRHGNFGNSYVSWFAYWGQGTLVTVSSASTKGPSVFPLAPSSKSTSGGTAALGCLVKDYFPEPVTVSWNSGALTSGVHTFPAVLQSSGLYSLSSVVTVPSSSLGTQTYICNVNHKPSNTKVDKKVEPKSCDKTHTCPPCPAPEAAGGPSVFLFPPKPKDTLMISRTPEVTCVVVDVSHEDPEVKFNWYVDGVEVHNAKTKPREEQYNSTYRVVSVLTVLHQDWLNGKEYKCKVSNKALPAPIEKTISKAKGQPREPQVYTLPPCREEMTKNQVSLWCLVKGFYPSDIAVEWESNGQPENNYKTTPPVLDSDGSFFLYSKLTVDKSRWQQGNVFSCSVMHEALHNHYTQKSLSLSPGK
chain: B4 chain with N32S, K56N, D102Q, R104L
notes: BCMAxCD3, Fab-Fc-VH (structure 11); CD3 Fab of PR003886, BCMA VH of PR004561; IgG1 knob/hole, LALA
B9: PR003875 (bispecific antibody, human IgG1, lambda, L234A L235A)
light: B4 light
heavy: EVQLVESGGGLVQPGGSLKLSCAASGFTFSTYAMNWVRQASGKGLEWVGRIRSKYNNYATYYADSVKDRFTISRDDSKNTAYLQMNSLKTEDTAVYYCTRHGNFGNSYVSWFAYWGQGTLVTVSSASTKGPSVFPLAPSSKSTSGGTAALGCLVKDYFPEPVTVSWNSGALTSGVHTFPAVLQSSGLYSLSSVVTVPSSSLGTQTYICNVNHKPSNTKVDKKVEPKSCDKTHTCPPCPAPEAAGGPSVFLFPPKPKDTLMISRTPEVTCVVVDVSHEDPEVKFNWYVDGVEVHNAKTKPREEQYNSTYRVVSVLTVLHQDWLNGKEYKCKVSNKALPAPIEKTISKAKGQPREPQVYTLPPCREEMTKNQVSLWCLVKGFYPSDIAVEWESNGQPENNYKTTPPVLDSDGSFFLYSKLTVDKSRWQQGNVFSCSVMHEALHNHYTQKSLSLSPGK
chain: B4 chain with N32A, K56R, D102Q
notes: BCMAxCD3, Fab-Fc-VH (structure 11); CD3 Fab of PR003886, BCMA VH of PR004570; IgG1 knob/hole, LALA
B10: PR003873 (bispecific antibody, human IgG1, lambda, L234A L235A)
light: B4 light
heavy: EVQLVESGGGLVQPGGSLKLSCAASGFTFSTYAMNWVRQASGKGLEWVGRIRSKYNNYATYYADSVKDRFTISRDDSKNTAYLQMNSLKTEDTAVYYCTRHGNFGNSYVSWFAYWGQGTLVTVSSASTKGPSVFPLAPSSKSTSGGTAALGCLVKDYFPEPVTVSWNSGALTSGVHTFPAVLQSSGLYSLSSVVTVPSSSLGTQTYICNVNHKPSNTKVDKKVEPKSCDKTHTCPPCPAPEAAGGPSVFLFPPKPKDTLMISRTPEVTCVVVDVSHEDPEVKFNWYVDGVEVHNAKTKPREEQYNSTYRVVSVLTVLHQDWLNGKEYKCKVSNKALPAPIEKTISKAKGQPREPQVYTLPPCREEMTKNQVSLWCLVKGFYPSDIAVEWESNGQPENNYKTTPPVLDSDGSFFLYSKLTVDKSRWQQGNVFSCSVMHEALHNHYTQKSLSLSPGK
chain: B4 chain with N32A, K56R, Y59V
notes: BCMAxCD3, Fab-Fc-VH (structure 11); CD3 Fab of PR003886, BCMA VH of PR004568; IgG1 knob/hole, LALA
B11: PR003878 (bispecific antibody, human IgG1, lambda, L234A L235A)
light: B4 light
heavy: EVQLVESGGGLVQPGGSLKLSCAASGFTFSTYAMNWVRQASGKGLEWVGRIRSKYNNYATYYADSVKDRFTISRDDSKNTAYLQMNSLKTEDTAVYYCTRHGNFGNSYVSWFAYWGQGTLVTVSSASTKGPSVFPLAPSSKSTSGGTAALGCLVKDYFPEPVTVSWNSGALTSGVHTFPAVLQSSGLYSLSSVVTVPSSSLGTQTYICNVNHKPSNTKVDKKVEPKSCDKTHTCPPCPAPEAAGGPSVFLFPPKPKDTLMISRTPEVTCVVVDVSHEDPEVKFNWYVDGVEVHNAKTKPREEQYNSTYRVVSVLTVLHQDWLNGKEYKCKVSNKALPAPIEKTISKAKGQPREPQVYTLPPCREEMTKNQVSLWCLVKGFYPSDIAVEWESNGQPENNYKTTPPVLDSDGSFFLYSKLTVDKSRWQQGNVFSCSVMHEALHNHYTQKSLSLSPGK
chain: B4 chain with N32S
notes: BCMAxCD3, Fab-Fc-VH (structure 11); CD3 Fab of PR003886, BCMA VH of PR004573; IgG1 knob/hole, LALA
B12: PR003871 (bispecific antibody, human IgG1, lambda, L234A L235A)
light: B4 light
heavy: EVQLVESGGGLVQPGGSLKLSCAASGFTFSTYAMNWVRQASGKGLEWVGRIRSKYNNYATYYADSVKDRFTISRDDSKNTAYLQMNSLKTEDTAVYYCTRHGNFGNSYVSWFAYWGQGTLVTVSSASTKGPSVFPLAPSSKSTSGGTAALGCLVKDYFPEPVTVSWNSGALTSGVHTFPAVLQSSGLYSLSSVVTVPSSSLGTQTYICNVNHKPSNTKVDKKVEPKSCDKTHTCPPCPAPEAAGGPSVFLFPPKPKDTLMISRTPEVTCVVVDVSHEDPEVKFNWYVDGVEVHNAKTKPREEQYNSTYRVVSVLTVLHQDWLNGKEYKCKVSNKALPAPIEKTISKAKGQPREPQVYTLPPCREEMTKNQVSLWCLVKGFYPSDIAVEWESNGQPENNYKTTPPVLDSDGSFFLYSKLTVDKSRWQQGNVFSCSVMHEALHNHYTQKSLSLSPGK
chain: B4 chain with N32S, K56R, A60S
notes: BCMAxCD3, Fab-Fc-VH (structure 11); CD3 Fab of PR003886, BCMA VH of PR004566; IgG1 knob/hole, LALA

target: T1, human BCMA; test: FACS on NCI-H929 cells
Procedure: This example is intended to investigate the binding activity of anti-BCMA HCAb antibodies to human and cynomolgus monkey BCMAs. […] Specifically, HEK293T/hBCMA cells and HEK293T/cyno BCMA cells were digested and resuspended in a DMEM complete medium. In addition, NCI-H929 cell suspension was collected. The density of each of the three cells was adjusted to 1×10⁶ cells/mL. […] The cells were incubated at 4° C. for 1 h away from light. Thereafter, the cells in each well were rinsed twice with 100 μL of pre-cooled PBS, and centrifuged at 500 g at 4° C. for 5 min, and then the supernatant was discarded. […] The cells in each well were rinsed twice with 100 μL of pre-cooled PBS, and centrifuged at 500 g at 4° C. for 5 min, and then the supernatant was discarded. Finally, the cells in each well were resuspended in 200 μL of pre-cooled PBS. Fluorescence signal values were read using a BD FACS CANTOII flow cytometer or an ACEA NovoCyte flow cytometer, and the data were processed and analyzed using FlowJo v10 (FlowJo, LLC) software. The data were processed and analyzed by plotting using GraphPad Prism 8 software, and binding curves of the antibodies to target cells, EC₅₀ values and other parameters were obtained through four-parameter nonlinear fitting.

Maximum MFI	EC50 [nM]	Binder
1980		B1
3210		B2
1290		B3
8590	4.6	B4
17400	7.3	B5
3430		B6
11100	1.7	B7
10300	2.6	B8
9840	1.2	B9
10200	1.3	B10
9240	1.5	B11
10600	2	B12
